Patent publication US20180236053A1 (published 2018)

Each binder was assayed against CD38 antigen on the surface of cells (U266 CD38+, MOLP8, Daudi, T-ALL cell lines, activated T cells) (human, UniProt P28907 1-300).

Row | Binder | Kd [nM]
1 | 10F7 scFv (tested as anti-CD38 CARs, versions V1, V2 and V3) (scFv) scFv: QAYLQQSGAELVRSGASVKMSCKASGYTFTSYNMHWVKQTPGQGLEWIGYIYPGNGGTNYNQKFKDKATLTADTSSSTAYMQISSLTSEDSAVYFCARGGQLGRPWFAYWGQGTLVTVSAGGGGSGGGGSGGGGSNIVLTQSPASLAASPGQRATISCRASESVDSYGNTFMYWYQQKPGQPPKLLIYLASNLESGVPVRFSGSGSRTDFTLTIDPVEADDAATYYCQQNNEDPWTFGGGTKVEIK | 30
2 | GMB005 scFv (tested as anti-CD38 tool CARs, versions V1, V2 and V3) (scFv) scFv: EVQLLESGGGLVQPGGSLRLSCAVSGFTFNSFAMSWVRQAPGKGLEWVSAISGSGGGTYYADSVKGRFTISRDNSKNTLYLQMNSLRAEDTAVYFCAKDKILWFGEPVFDYWGQGTLVTVSSASGGGGSGGGGSGGGGSEIVLTQSPATLSLSPGERATLSCRASQSVSSYLAWYQQKPGQAPRLLIYDASNRATGIPARFSGSGSGTDFTLTISSLEPEDFAVYYCQQRSNWPPTFGQGTKVEIK | 119
3 | 16B5 scFv (tested as anti-CD38 CARs, versions V1, V2 and V3) (scFv) scFv: QAYLQQSGAELVRSGASVKMSCKASGYTFTSYNLHWVKQTPGQGLEWIGYIYPGNGGTNYNQKFKGKATLTADTSSSTAYMQISSLTSEDSAVYFCARGGIYYYGSSLDYWGQGTTLTVSSGGGGSGGGGSGGGGSNIVLTQSPASLAVSLGQRATISCRASESVDNYGTTFMYWYQQKPGQPPKLLIYLASNLESGVPARFSGSGSGTDFTLTIDPVEADDAATYYCQQNKEDPWTFGGGTKLEIK | 3.2

Stronger by Kd, values ahead:

Row | Kd [nM] | Binder
4 | 0.52 | 29B4 scFv (tested as anti-CD38 CARs, versions V1, V2 and V3) (scFv) scFv: EVQLVESGGGLVKPGGSLKLSCAASGFTFSDYFMYWVRQTPEKRLEWVAIISDGGIYTYYPDSVKGRFTISRDNAKNNLYLQMSSLKSEDTAMYYCARDGRDDYDGWYFDVWGAGTTVTVSSGGGGSGGGGSGGGGSDIVMTQSHKFMSTSVGDRVNITCKASQDVNTAVAWYQQKPGQSPKLLIYWASTRHAGVPDRFTGSGSGTDYALTISSVQAEDLALYYCQQHYSTPRTFGGGTKLEIK
5 | 0.8 | 13F11 scFv (tested as anti-CD38 CARs, versions V1, V2 and V3) (scFv) scFv: QIQLVQSGPELKKPGETVKISCKASGYTFKKYGMNWVKQAPGKGLKWMGWINTNTGEPTYAEEFKGRFAFSLETSASTAYLQINNLKNEDTATYFCARWYYGSTPSSYTMDYWGQGTSVTVSSGGGGSGGGGSGGGGSETTVTQSPASLSVATGEKVTIRCITSTDIDDDMNWYQQKPGEPPKVLISEGNTLRPGVPSRFSSSGYGTDFVFTIENTLSEDVADYYCLQSNNMPYTFGGGTKLEIK
6 | 2.2 | 27B6 scFv (tested as anti-CD38 CARs, versions V1, V2 and V3) (scFv) scFv: QVQLKQSGPGLVQPSQSLSITCTVSGFSLTSYNIDWVRQSPGKGLEWLGVIWSGGSTDYNAAFISRLKISKDDSKSQVFFKMNSLQSDDTAIYYCARHSPLVSTPDWYFDVWGAGTTVTVSSGGGGSGGGGSGGGGSQIVLTQSPAIMSASPGEKVTMTCSTSSSVSYMHWYQQKSGTSPKRWIYDTSKLASGVPARFSGSGSGTSYSLTINNMEAEDAATYSCQQWSSYPPTFGGGTKLEIK
7 | 0.25 | 25A10 scFv (tested as anti-CD38 CARs, versions V1, V2 and V3) (scFv) scFv: EVQLQQSGAELVRPGASVKLSCTASGFNIKDSLIHWVKQRPEQGLEWIGWIDPEDDKTKYAPKFQDKATLTADTSSNTAYLQLSTLTSEDTAIYYCVSRYINYYFAYWGQGTTLTVSSGGGGSGGGGSGGGGSDIVMTQSPSSLTVTAGEKVTMSCKSSQSLLHSGNQRNYLTWYQQKPGQPPKLLIYWASTRESGVPDRFTGSGSGTDFTLTISSVQAEDLAVYYCQNDYDYPYTFGGGTKLEIK
